Test results from patent US20190152966A1 (INSTITUTE OF CANCER RESEARCH ROYAL CANCER HOSPITAL, published 2019).

Molecular target: T1, Epidermal Growth Factor Receptor (EGFR) (human, UniProt P00533 25-1210)
T1 construct: whole, on cells; also called HER1; EGF receptor
Test: heading of the results section on rhMATN2 added to MDA-MB-231 cells

B1: recombinant human MATN2 (rhMATN2) (ligand, UniProt O00339 24-956, looked up)
chain: RERSRGRSISRGRHARTHPQTALLESSCENKRADLVFIIDSSRSVNTHDYAKVKEFIVDILQFLDIGPDVTRVGLLQYGSTVKNEFSLKTFKRKSEVERAVKRMRHLSTGTMTGLAIQYALNIAFSEAEGARPLRENVPRVIMIVTDGRPQDSVAEVAAKARDTGILIFAIGVGQVDFNTLKSIGSEPHEDHVFLVANFSQIETLTSVFQKKLCTAHMCSTLEHNCAHFCINIPGSYVCRCKQGYILNSDQTTCRIQDLCAMEDHNCEQLCVNVPGSFVCQCYSGYALAEDGKRCVAVDYCASENHGCEHECVNADGSYLCQCHEGFALNPDKKTCTKIDYCASSNHGCQHECVNTDDSYSCHCLKGFTLNPDKKTCRRINYCALNKPGCEHECVNMEESYYCRCHRGYTLDPNGKTCSRVDHCAQQDHGCEQLCLNTEDSFVCQCSEGFLINEDLKTCSRVDYCLLSDHGCEYSCVNMDRSFACQCPEGHVLRSDGKTCAKLDSCALGDHGCEHSCVSSEDSFVCQCFEGYILREDGKTCRRKDVCQAIDHGCEHICVNSDDSYTCECLEGFRLAEDGKRCRRKDVCKSTHHGCEHICVNNGNSYICKCSEGFVLAEDGRRCKKCTEGPIDLVFVIDGSKSLGEENFEVVKQFVTGIIDSLTISPKAARVGLLQYSTQVHTEFTLRNFNSAKDMKKAVAHMKYMGKGSMTGLALKHMFERSFTQGEGARPLSTRVPRAAIVFTDGRAQDDVSEWASKAKANGITMYAVGVGKAIEEELQEIASEPTNKHLFYAEDFSTMDEISEKLKKGICEALEDSDGRQDSPAGELPKTVQQPTESEPVTINIQDLLSCSNFAVQHRYLFEEDNLLRSTQKLSHSTKPSGSPLEEKHDQCKCENLIMFQNLANEEVRKLTQRLEEMTQRMEALENRLRYR
notes: also called Matrilin2; human recombinant MATN2
B1: binds.
